Data as given in patent US20160039947A1 (Eli Lilly, published 2016).

Legend:
[1] = molecular target: T1, hEGFR-Fc (human, UniProt P00533 25-645); test: sandwich ELISA: hHER-2-Fc coated, BsAb, hEGFR-Fc-biotin detection
T1 construct: Biotin-labelled (EZ-Link Sulfo-NHS-LC-Biotin) as detection reagent in the ELISA; unlabelled second injection in SPR; also called hEGFR-Fc-biotin; not shown: Fc part of the bought fusion protein
Description: (§1) Two sandwich ELISAs are developed, one for detecting anti-HER-2/anti-EGFR BsAb activity and one for detecting anti-cMET/anti-Axl BsAb activity. For both ELISAs, clear 96-well round bottom high binding Immulon microtiter plates (Greiner bio-one, cat#650061) are coated overnight at 2-8° C. with 50 μL/well 1 μg/mL hHER-2-Fc or 1 μg/mL hHGFR(cMet)-Fc (both from R&D systems) in a 50 mM Na₂CO₃ pH 8 buffer. The plates are washed 4 times with PB ST and blocked with 100 μL/well casein buffer (Pierce) for 1 hr at 37° C. The plates are then washed 4 times with PBST and the parental IgG controls or BsAb IgG test articles are added at 50 μL/well and 5 μg/mL and serially diluted 1:3 down the plate. The test articles are incubated on the plate for 1 hr at 37° C. The plates are then washed 4 times with PBST and 50 μL/well 0.2 μg/mL hEGFR-Fc-biotin or hAxl-Fc-biotin (both from R&D systems) is added for 1 hr at 37° C. The plates are then washed 4 times with PBST followed by the addition of a 50 μL/well streptavidin-HRP (Jackson Labs) diluted 1:2000 in PBST. The streptavidin-HRP is incubated in each well for 1 hr at 37° C. The plates are then washed 4 times with PBST and 100 μL/well 1-component TMB substrate is added (KPL laboratories). After approximately 10 minutes, […] 1% H₃PO₄ (in H₂O) is added to each plate to quench the reaction. Absorbance (450 nm) of every well in the plates is read using a SpectraMax UV plate reader (Molecular Devices). Biotin-labeling of the hEGFR-Fc and hAxl-Fc proteins is performed using EZ-Link Sulfo-NHS-LC-Biotin (Thermo Scientific) according to the manufacturer's protocol.

[2] = molecular target: T2, hHGFR(cMet)-Fc (human, UniProt P08581 25-932); test: sandwich ELISA: hHGFR(cMet)-Fc coated, BsAb, hAxl-Fc-biotin detection
T2 construct: Coated in the sandwich ELISA; second injection in SPR; not shown: Fc part of the bought fusion protein
T2 sequence (P08581 25-932): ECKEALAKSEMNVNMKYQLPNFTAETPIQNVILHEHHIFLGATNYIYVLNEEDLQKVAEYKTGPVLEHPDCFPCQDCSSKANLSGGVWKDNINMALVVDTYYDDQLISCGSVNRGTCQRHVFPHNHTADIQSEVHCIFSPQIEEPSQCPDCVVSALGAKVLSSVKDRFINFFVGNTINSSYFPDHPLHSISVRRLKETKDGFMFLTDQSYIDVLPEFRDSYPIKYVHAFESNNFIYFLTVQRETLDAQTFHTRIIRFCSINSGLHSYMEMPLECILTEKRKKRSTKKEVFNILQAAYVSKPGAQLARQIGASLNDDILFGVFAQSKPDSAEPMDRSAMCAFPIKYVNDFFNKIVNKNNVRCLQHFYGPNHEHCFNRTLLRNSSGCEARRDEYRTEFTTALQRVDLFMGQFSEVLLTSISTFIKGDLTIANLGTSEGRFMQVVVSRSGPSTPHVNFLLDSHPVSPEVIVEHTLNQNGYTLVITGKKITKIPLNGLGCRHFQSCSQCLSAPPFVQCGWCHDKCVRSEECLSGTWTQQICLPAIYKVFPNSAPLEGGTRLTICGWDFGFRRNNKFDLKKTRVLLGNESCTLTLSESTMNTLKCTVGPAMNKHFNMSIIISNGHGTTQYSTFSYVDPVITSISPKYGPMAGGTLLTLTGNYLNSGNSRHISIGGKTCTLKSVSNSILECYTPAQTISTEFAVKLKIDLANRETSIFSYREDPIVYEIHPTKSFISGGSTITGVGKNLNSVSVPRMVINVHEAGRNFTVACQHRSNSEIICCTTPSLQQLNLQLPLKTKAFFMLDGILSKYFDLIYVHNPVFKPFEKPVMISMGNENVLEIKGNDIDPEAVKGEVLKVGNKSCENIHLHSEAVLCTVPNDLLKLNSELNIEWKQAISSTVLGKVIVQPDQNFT
Description: as §1

Row | Binder | binding result [1] | binding result [2]
1 | HEControl λλ (anti-HER-2/anti-EGFR IgG BsAb without Fab redesigns) (bispecific antibody, The preparation held 65% correctly paired heterotetramer by LC/MS) heavy 1: EVQLVESGGGLVQPGGSLRLSCAASGFTFTDYTMDWVRQAPGKGLEWVADVNPNSGGSIYNQRFKGRFTLSVDRSKNTLYLQMNSLRAEDTAVYYCARNLGPSFYFDYWGQGTLVTVSSASTKGPSVFPLAPSSKSTSGGTAALGCLVKDYFPEPVTVSWNSGALTSGVHTFPAVLQSSGLYSLSSVVTVPSSSLGTQTYICNVNHKPSNTKVDKKVEPKSCDKTHTCPPCPAPELLGGPSVFLFPPKPKDTLMISRTPEVTCVVVDVSHEDPEVKFNWYVDGVEVHNAKTKPREEQYQSTYRVVSVLTVLHQDWLNGKEYKCKVSNKALPAPIEKTISKAKGQPREPQVYTLPPSRDELTKNQVSLTCLVKGFYPSDIAVEWESNGQPENNYDTTPPVLDSDGSFFLYSDLTVDKSRWQQGNVFSCSVMHEALHNHYTQKSLSLSPG light 1: DIQMTQSPSSLSASVGDRVTITCKASQDVSIGVAWYQQKPGKAPKLLIYSASYRYTGVPSRFSGSGSGTDFTLTISSLQPEDFATYYCQQYYIYPYTFGQGTKVEIKGQPKAAPSVTLFPPSSEELQANKATLVCLISDFYPGAVTVAWKADSSPVKAGVETTTPSKQSNNKYAASSYLSLTPEQWKSHRSYSCQVTHEGSTVEKTVAPTEC heavy 2: QVQLVQSGAEVKKPGASVKVSCKASGYTFTSHWMHWVRQAPGQGLEWIGEFNPSNGRTNYNEKFKSKATMTVDTSTNTAYMELSSLRSEDTAVYYCASRDYDYDGRYFDYWGQGTLVTVSSASTKGPSVFPLAPSSKSTSGGTAALGCLVKDYFPEPVTVSWNSGALTSGVHTFPAVLQSSGLYSLSSVVTVPSSSLGTQTYICNVNHKPSNTKVDKKVEPKSCDKTHTCPPCPAPELLGGPSVFLFPPKPKDTLMISRTPEVTCVVVDVSHEDPEVKFNWYVDGVEVHNAKTKPREEQYQSTYRVVSVLTVLHQDWLNGKEYKCKVSNKALPAPIEKTISKAKGQPREPQVYTLPPSRKELTKNQVSLTCLVKGFYPSDIAVEWESNGQPENNYKTTPPVLKSDGSFFLYSKLTVDKSRWQQGNVFSCSVMHEALHNHYTQKSLSLSPG light 2: DIQMTQSPSSLSASVGDRVTITCSASSSVTYMYWYQQKPGKAPKLLIYDTSNLASGVPSRFSGSGSGTDYTFTISSLQPEDIATYYCQQWSSHIFTFGQGTKVEIKGQPKAAPSVTLFPPSSEELQANKATLVCLISDFYPGAVTVAWKADSSPVKAGVETTTPSKQSNNKYAASSYLSLTPEQWKSHRSYSCQVTHEGSTVEKTVAPTEC | binds | 
2 | MAControl λλ (anti-cMET/anti-Axl IgG BsAb without Fab redesigns) (bispecific antibody) heavy 1: EVQLVESGGGLVQPGGSLRLSCAASGYTFTSYWLHWVRQAPGKGLEWVGMIDPSNSDTRFNPNFKDRFTISADTSKNTAYLQMNSLRAEDTAVYYCATYRSYVTPLDYWGQGTLVTVSSASTKGPSVFPLAPSSKSTSGGTAALGCLVKDYFPEPVTVSWNSGALTSGVHTFPAVLQSSGLYSLSSVVTVPSSSLGTQTYICNVNHKPSNTKVDKKVEPKSCDKTHTCPPCPAPELLGGPSVFLFPPKPKDTLMISRTPEVTCVVVDVSHEDPEVKFNWYVDGVEVHNAKTKPREEQYQSTYRVVSVLTVLHQDWLNGKEYKCKVSNKALPAPIEKTISKAKGQPREPQVYTLPPSRDELTKNQVSLTCLVKGFYPSDIAVEWESNGQPENNYDTTPPVLDSDGSFFLYSDLTVDKSRWQQGNVFSCSVMHEALHNHYTQKSLSLSPG light 1: DIQMTQSPSSLSASVGDRVTITCKSSQSLLYTSSQKNYLAWYQQKPGKAPKLLIYWASTRESGVPSRFSGSGSGTDFTLTISSLQPEDFATYYCQQYYAYPWTFGQGTKVEIKGQPKAAPSVTLFPPSSEELQANKATLVCLISDFYPGAVTVAWKADSSPVKAGVETTTPSKQSNNKYAASSYLSLTPEQWKSHRSYSCQVTHEGSTVEKTVAPTEC heavy 2: EVQLVESGGGLVQPGGSLRLSCAASGFSLSGSWIHWVRQAPGKGLEWVGWINPYRGYAYYADSVKGRFTISADTSKNTAYLQMNSLRAEDTAVYYCAREYSGWGGSSVGYAMDYWGQGTLVTVSSASTKGPSVFPLAPSSKSTSGGTAALGCLVKDYFPEPVTVSWNSGALTSGVHTFPAVLQSSGLYSLSSVVTVPSSSLGTQTYICNVNHKPSNTKVDKKVEPKSCDKTHTCPPCPAPELLGGPSVFLFPPKPKDTLMISRTPEVTCVVVDVSHEDPEVKFNWYVDGVEVHNAKTKPREEQYQSTYRVVSVLTVLHQDWLNGKEYKCKVSNKALPAPIEKTISKAKGQPREPQVYTLPPSRKELTKNQVSLTCLVKGFYPSDIAVEWESNGQPENNYKTTPPVLKSDGSFFLYSKLTVDKSRWQQGNVFSCSVMHEALHNHYTQKSLSLSPG light 2: DIQMTQSPSSLSASVGDRVTITCRASQDVSTAVAWYQQKPGKAPKLLIYSASFLYSGVPSRFSGSGSGTDFTLTISSLQPEDFATYYCQQSYTTPPTFGQGTKVEIKGQPKAAPSVTLFPPSSEELQANKATLVCLISDFYPGAVTVAWKADSSPVKAGVETTTPSKQSNNKYAASSYLSLTPEQWKSHRSYSCQVTHEGSTVEKTVAPTEC |  | binds
3 | HEControl λκ (anti-HER-2/anti-EGFR IgG BsAb without Fab redesigns) (bispecific antibody) heavy 1: EVQLVESGGGLVQPGGSLRLSCAASGFTFTDYTMDWVRQAPGKGLEWVADVNPNSGGSIYNQRFKGRFTLSVDRSKNTLYLQMNSLRAEDTAVYYCARNLGPSFYFDYWGQGTLVTVSSASTKGPSVFPLAPSSKSTSGGTAALGCLVKDYFPEPVTVSWNSGALTSGVHTFPAVLQSSGLYSLSSVVTVPSSSLGTQTYICNVNHKPSNTKVDKKVEPKSCDKTHTCPPCPAPELLGGPSVFLFPPKPKDTLMISRTPEVTCVVVDVSHEDPEVKFNWYVDGVEVHNAKTKPREEQYQSTYRVVSVLTVLHQDWLNGKEYKCKVSNKALPAPIEKTISKAKGQPREPQVYTLPPSRDELTKNQVSLTCLVKGFYPSDIAVEWESNGQPENNYDTTPPVLDSDGSFFLYSDLTVDKSRWQQGNVFSCSVMHEALHNHYTQKSLSLSPG light 1: DIQMTQSPSSLSASVGDRVTITCKASQDVSIGVAWYQQKPGKAPKLLIYSASYRYTGVPSRFSGSGSGTDFTLTISSLQPEDFATYYCQQYYIYPYTFGQGTKVEIKGQPKAAPSVTLFPPSSEELQANKATLVCLISDFYPGAVTVAWKADSSPVKAGVETTTPSKQSNNKYAASSYLSLTPEQWKSHRSYSCQVTHEGSTVEKTVAPTEC heavy 2: QVQLVQSGAEVKKPGASVKVSCKASGYTFTSHWMHWVRQAPGQGLEWIGEFNPSNGRTNYNEKFKSKATMTVDTSTNTAYMELSSLRSEDTAVYYCASRDYDYDGRYFDYWGQGTLVTVSSASTKGPSVFPLAPSSKSTSGGTAALGCLVKDYFPEPVTVSWNSGALTSGVHTFPAVLQSSGLYSLSSVVTVPSSSLGTQTYICNVNHKPSNTKVDKKVEPKSCDKTHTCPPCPAPELLGGPSVFLFPPKPKDTLMISRTPEVTCVVVDVSHEDPEVKFNWYVDGVEVHNAKTKPREEQYQSTYRVVSVLTVLHQDWLNGKEYKCKVSNKALPAPIEKTISKAKGQPREPQVYTLPPSRKELTKNQVSLTCLVKGFYPSDIAVEWESNGQPENNYKTTPPVLKSDGSFFLYSKLTVDKSRWQQGNVFSCSVMHEALHNHYTQKSLSLSPG light 2: DIQMTQSPSSLSASVGDRVTITCSASSSVTYMYWYQQKPGKAPKLLIYDTSNLASGVPSRFSGSGSGTDYTFTISSLQPEDIATYYCQQWSSHIFTFGQGTKVEIKRTVAAPSVFIFPPSDEQLKSGTASVVCLLNNFYPREAKVQWKVDNALQSGNSQESVTEQDSKDSTYSLSSTLTLSKADYEKHKVYACEVTHQGLSSPVTKSFNRGEC | binds | 
4 | MADesign λλ (anti-cMET/anti-Axl IgG BsAb with Fab redesigns) (bispecific antibody, also called MA Designs) heavy 1: EVQLVESGGGLVQPGGSLRLSCAASGYTFTSYWLHWVRKAPGKGLEWVGMIDPSNSDTRFNPEFKDRFTISADTSKNTAYLQMNSLRAEDTAVYYCATYRSYVTPLDYWGQGTLVTVSSASTKGPSVFPLAPSSKSTSGGTAALGCLVKDYFPEPVTVSWNSGALTSGVATGPAVLQSSGLYSLSSVVTVPSSSLGTQTYICNVNHKPSNTKVDKKVEPKSCDKTHTCPPCPAPELLGGPSVFLFPPKPKDTLMISRTPEVTCVVVDVSHEDPEVKFNWYVDGVEVHNAKTKPREEQYQSTYRVVSVLTVLHQDWLNGKEYKCKVSNKALPAPIEKTISKAKGQPREPQVYTLPPSRDELTKNQVSLTCLVKGFYPSDIAVEWESNGQPENNYDTTPPVLDSDGSFFLYSDLTVDKSRWQQGNVFSCSVMHEALHNHYTQKSLSLSPG light 1: RIQMTQSPSSLSASVGDRVTITCKSSQSLLYTSSQKNYLAWYQDKPGKAPKLLIYWASTRESGVPSRFSGSGSGTDFTLTISSLQPEDFATYYCQQYYAYPWTFGQGTKVEIKGQPKAAPSVTLFPPSSEELQANKATLVCYISDFYPGAVTVAWKADSSPVKAGVETTTPSKQSNNKYAAWSYLSLTPEQWKSHRSYSCQVTHEGSTVEKTVAPTEC heavy 2: EVQLVESGGGLVQPGGSLRLSCAASGFSLSGSWIHWVRYAPGKGLEWVGWINPYRGYAYYADSVKGRFTISADTSKNTAYLQMNSLRAEDTAVYYCAREYSGWGGSSVGYAMDYWGQGTLVTVSSASTKGPSVFPLAPSSKSTSGGTAALGCLVKDYFPEPVTVSWNSGALTSGVHTFPAVLQSSGLYSLSSVVTVPSSSLGTQTYICNVNHKPSNTKVDKKVEPKSCDKTHTCPPCPAPELLGGPSVFLFPPKPKDTLMISRTPEVTCVVVDVSHEDPEVKFNWYVDGVEVHNAKTKPREEQYQSTYRVVSVLTVLHQDWLNGKEYKCKVSNKALPAPIEKTISKAKGQPREPQVYTLPPSRKELTKNQVSLTCLVKGFYPSDIAVEWESNGQPENNYKTTPPVLKSDGSFFLYSKLTVDKSRWQQGNVFSCSVMHEALHNHYTQKSLSLSPG light 2: DIQMTQSPSSLSASVGDRVTITCRASQDVSTAVAWYQRKPGKAPKLLIYSASFLYSGVPSRFSGSGSGTDFTLTISSLQPEDFATYYCQQSYTTPPTFGQGTKVEIKGQPKAAPSVTLFPPSSEELQANKATLVCLISDFYPGAVTVAWKADSSPVKAGVETTTPSKQSNNKYAASSYLSLTPEQWKSHRSYSCQVTHEGSTVEKTVAPTEC |  | binds
